Experiments:
mPD-1-Fc [1] = target: T1, mPD-1-Fc (mouse; human, UniProt Q02242 25-167, limits assumed); experiment: SPR Biacore, mPD1-Fc (second m3A7 row)
T1 construct: domain: IgV domain; not shown: human IgG1 Fc
T1 sequence (looked up): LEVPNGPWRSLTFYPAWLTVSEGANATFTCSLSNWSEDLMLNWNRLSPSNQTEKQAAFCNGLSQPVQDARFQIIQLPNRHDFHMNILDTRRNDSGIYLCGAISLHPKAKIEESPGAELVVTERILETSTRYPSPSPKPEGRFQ

[2] = target: T2, hPD1 (soluble, ELISA of Example 20) (human, UniProt Q15116 25-167, limits assumed); experiment: blocking ELISA, hPD1 to hPDL1
T2 sequence (Q15116 25-167 limits assumed): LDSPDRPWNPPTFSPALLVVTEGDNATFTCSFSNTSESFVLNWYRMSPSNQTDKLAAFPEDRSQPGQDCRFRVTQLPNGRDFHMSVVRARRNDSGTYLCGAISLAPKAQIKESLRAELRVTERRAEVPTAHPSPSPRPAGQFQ

[3] = target: T3, mouse PD-1 expressed on cells (mouse, UniProt Q02242 25-288); experiment: cell-based or functional assay
T3 sequence (looked up): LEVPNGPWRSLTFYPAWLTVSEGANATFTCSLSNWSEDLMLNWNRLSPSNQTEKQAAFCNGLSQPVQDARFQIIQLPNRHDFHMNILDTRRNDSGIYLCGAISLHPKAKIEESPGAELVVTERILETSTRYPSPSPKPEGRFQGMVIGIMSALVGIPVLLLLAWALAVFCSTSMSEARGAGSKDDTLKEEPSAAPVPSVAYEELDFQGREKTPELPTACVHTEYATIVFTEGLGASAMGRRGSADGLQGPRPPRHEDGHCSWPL

[4] = target: T3, mouse PD-1 expressed on cells; experiment: flow cytometry, mPD1-eff cells
[5] = target: T4, mPD1 (soluble, ELISA of Examples 20 and 24) (mouse, UniProt Q02242 25-167, limits assumed); experiment: blocking ELISA, mPD1 to mPDL1
T4 construct: also called Biotin-mPD1
T4 sequence (looked up): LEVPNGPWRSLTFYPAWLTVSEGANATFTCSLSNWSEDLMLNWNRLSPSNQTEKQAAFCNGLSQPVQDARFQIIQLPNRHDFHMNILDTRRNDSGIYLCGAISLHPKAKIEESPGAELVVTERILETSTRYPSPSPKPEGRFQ

[6] = target: T3, mouse PD-1 expressed on cells; experiment: cell-based or functional assay; remark: listed apart in the source
[7] = target: T3, mouse PD-1 expressed on cells; experiment: flow cytometry, mPD1-293 cells
hPD-1-Fc [8] = target: T5, hPD-1-Fc (human, UniProt Q15116 25-167); experiment: SPR Biacore, hPD1-Fc (second m3A7 row)
T5 construct: domain: IgV domain; also called human PD-1-Fc; not shown: human IgG1 Fc
T5 sequence (Q15116 25-167 limits assumed): as the sequence (Q15116 25-167 limits assumed) above

[9] = target: T4, mPD1 (soluble, ELISA of Examples 20 and …); experiment: ELISA, mPD1
[10] = target: T4, mPD1 (soluble, ELISA of Examples 20 and …); experiment: ELISA, biotin-mPD1 on streptavidin
mPD-1-his [11] = target: T6, mPD-1-his (mouse, UniProt Q02242 25-167, limits assumed); experiment: SPR Biacore, mPD1-his
T6 construct: domain: IgV domain
T6 sequence: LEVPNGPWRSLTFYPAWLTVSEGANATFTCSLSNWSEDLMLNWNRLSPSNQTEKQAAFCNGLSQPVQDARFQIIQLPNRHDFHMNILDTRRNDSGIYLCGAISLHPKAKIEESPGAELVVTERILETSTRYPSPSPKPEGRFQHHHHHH

mPD-1-Fc [12] = target: T1, mPD-1-Fc; experiment: ELISA, mPD-1-Fc
mPD-1-Fc [13] = target: T1, mPD-1-Fc; experiment: blocking ELISA, mPD-1 to PD-L1
[14] = target: T3, mouse PD-1 expressed on cells; experiment: flow cytometry, mPD-1-293 cells
hPD-1-Fc [15] = target: T5, hPD-1-Fc; experiment: SPR Biacore, hPD1-Fc
mPD-1-Fc [16] = target: T1, mPD-1-Fc; experiment: SPR Biacore, mPD1-Fc
mPD-1-his [17] = target: T6, mPD-1-his; experiment: SPR Biacore, mPD1-his (second m3A7 row)
[18] = target: T2, hPD1 (soluble, ELISA of Example 20); experiment: ELISA, hPD1
mPD-1-Fc [19] = target: T1, mPD-1-Fc; experiment: ELISA, mPD-1-Fc on streptavidin
mPD-1-his [20] = target: T6, mPD-1-his; experiment: ELISA, mPD-1-his on streptavidin
[21] = target: T7, human PD-1 expressed on cells (human, UniProt Q15116 25-288); experiment: cell-based or functional assay
T7 sequence (Q15116 25-288): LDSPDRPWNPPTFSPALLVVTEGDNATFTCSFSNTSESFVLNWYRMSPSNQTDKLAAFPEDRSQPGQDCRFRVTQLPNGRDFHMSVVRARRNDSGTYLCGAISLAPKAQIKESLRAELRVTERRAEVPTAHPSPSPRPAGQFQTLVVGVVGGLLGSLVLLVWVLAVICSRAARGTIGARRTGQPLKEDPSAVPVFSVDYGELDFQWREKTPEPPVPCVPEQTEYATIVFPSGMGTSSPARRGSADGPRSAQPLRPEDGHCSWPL

[22] = target: T7, human PD-1 expressed on cells; experiment: flow cytometry, hPD1-293 cells
[23] = target: T7, human PD-1 expressed on cells; experiment: flow cytometry, hPD1-Jurkat cells

| Binder | IC50 [2] [nM] | EC50 [4] [nM] | IC50 [5] [nM] | IC50, Promega blockade bioassay [6] [nM] | EC50 [7] [nM] | EC50 [9] [nM] | EC50 [10] [nM] | Kd (mPD-1-his [11]) [nM] | koff (mPD-1-his [11]) [s⁻¹] | kon (mPD-1-his [11]) [M⁻¹ s⁻¹] | Kd (hPD-1-Fc [15]) [nM] | koff (hPD-1-Fc [15]) [s⁻¹] | kon (hPD-1-Fc [15]) [M⁻¹ s⁻¹] | Kd (mPD-1-Fc [16]) [nM] | koff (mPD-1-Fc [16]) [s⁻¹] | kon (mPD-1-Fc [16]) [M⁻¹ s⁻¹] | EC50 [18] [nM] | also measured |
| --- | --- | --- | --- | --- | --- | --- | --- | --- | --- | --- | --- | --- | --- | --- | --- | --- | --- | --- |
| m3A7 (antibody, V domains shown, R3A9 derivative; also called 7115C) VH: QVQLVQSGAEVKKPGASVKVSCKASGHTFTSYYIHWVRQAPGQGLEWMGIINPSGGSTSYAQKFQGRVTMTRDTSTSTVYMELSSLRSEDTAVYYCARDRAYGGAGDYWGQGTLVTVSS VL: DIQMTQSPSSLSASVGDRVTITCRASRSISNWLAWYQQKPGKAPKLLIYAASSLQSGVPSRFSGSGSGTDFTLTISSLQPEDFATYYCQQSYSAPVTFGQGTKVEIK | 37.8 | 0.27 | 0.537 | 0.561 | 0.609 | 0.349 | 0.268 | 3.03 | 0.000823 | 272000 | 103 | 0.0176 | 171000 | 2.53 | 0.000659 | 261000 | 0.63 | Kd (mPD-1-Fc [1]): 1.86 nM; koff (mPD-1-Fc [1]): 0.000406 s⁻¹; kon (mPD-1-Fc [1]): 219000 M⁻¹ s⁻¹; IC 50, Promega assay [3]: 0.0709 µg/mL; Kd (hPD-1-Fc [8]): 19.9 nM; koff (hPD-1-Fc [8]): 0.00263 s⁻¹; kon (hPD-1-Fc [8]): 132000 M⁻¹ s⁻¹; EC50 (mPD-1-Fc [12]): 0.834 nM; IC50 (mPD-1-Fc [13]): 0.102 nM; EC50 [14]: 0.228 nM; Kd (mPD-1-his [17]): 1.98 nM; koff (mPD-1-his [17]): 0.000479 s⁻¹; kon (mPD-1-his [17]): 241000 M⁻¹ s⁻¹; EC50 (mPD-1-Fc [19]): 0.187 nM; EC50 (mPD-1-his [20]): 0.251 nM |
| m4D1 (antibody, V domains shown, R3A9 derivative) VH: QVQLVQSGAEVKKPGASVKVSCKASGHTFTSYYIHWVRQAPGQGLEWMGIINPSGGSTSYAQKFQGRVTMTRDTSTSTVYMELSSLRSEDTAVYYCARDRAYGGAGDYWGQGTLVTVSS VL: DIQMTQSPSSLSASVGDRVTITCRASQSISAWLAWYQQKPGKAPKLLIYKASSLESGVPSRFSGSGSGTDFTLTISSLQPEDFATYYCQQSYSPPATFGGGTKVEIK | 6.02 | 0.441 | 0.882 | 0.572 | 1.14 | 2.03 | 1.15 | 2.87 | 0.000201 | 70000 | 1.09 | 6.36e-05 | 58300 | 2.69 | 0.000179 | 66300 | 0.221 | IC50, Promega blockade bioassay [21]: 2.12 nM; EC50 [22]: 1.48 nM; EC50 [23]: 0.738 nM |
